Assay [1] addresses Rhesus/Macaque TNF (Rhesus/Macaque, UniProt P48094 77-233). Kind of assay: cell-based or functional assay.
Assay [2] concerns the target T1, human TNF-α (human, UniProt P01375 77-233). Kind of assay: cell-based or functional assay.
T1 sequence (P01375 77-233 R107D limits assumed): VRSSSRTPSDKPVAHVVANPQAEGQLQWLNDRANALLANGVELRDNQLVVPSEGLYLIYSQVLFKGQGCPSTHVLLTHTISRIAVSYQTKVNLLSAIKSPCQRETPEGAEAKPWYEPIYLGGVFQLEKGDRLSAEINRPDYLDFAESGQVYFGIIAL
For assay [3], the target named is T1, human TNF-α. Kind of assay: hTNFa ELISA; IgG captured on anti-human IgG-Fc, biotinylated human TNF titrated.
Assay [4] has as its target T2, human TNF-α (human, UniProt P01375 77-233). Kind of assay: cell-based or functional assay. This is another data set of the same source.
T2 sequence (P01375 77-233 R107D limits assumed): as above
Assay [5] has as its target Rhesus/Macaque TNF (rhesus/macaque, UniProt P48094 77-233). Description: cell-based or functional assay.
Assay [6] addresses T2, human TNF-α. Description: ELISA: IgG captured on goat anti-human IgG-Fc, biotin-human TNF titrated, streptavidin-HRP. In general terms: ELISA stands for enzyme-linked immunosorbent assay.

Broadly, the EC50 is the concentration that produces a half-maximal response. The low end stands for an effect from little substance, the high end for a need for much substance.

Rhesus/Macaque TNF (rhesus/macaque, UniProt P48094 77-233), sequence (P48094 77-233 limits assumed): as the sequence (P01375 77-233 R107D limits assumed) above, with D31R, R44T, T72N, R138L counted along it
Rhesus/Macaque TNF (Rhesus/Macaque, UniProt P48094 77-233), sequence (P48094 77-233 limits assumed): as the sequence (P01375 77-233 R107D limits assumed) above, with D31R, R44T, T72N, R138L counted along it

B1: hMAK199-AM1 (antibody, V domains shown)
VH: EVQLVQSGAEVKKPGASVKVSCKASGYTFANYGIIWVRQAPGQGLEWMGWINTYTGKPTYAQKFQGRVTMTTDTSTSTAYMELSSLRSEDTAVYYCARKLFTTMDVTDNAMDYWGQGTTVTVSS
VL: DIQMTQSPSSLSASVGDRVTITCRASQDISQYLNWYQQKPGKAPKLLIYYTSRLQSGVPSRFSGSGSGTDFTLTISSLQPEDFATYFCQQGNTWPPTFGQGTKLEIK
notes: scFv clone J662M2S3#10 converted to full length IgG; HC plasmid pHybE-hCg1,z,non-a V2 (human IgG1), LC plasmid pHybE-hCk V3 (human kappa); also called J662M2S3#10
For the molecule B1, the “rhesus TNF neutralization IC50” value with Rhesus/Macaque TNF [1] is 12 pM. Also, the “hu TNF neutralization IC50” value in the assay with human TNF-α [2] worked out at 54 pM. Moreover, in the assay with human TNF-α [3], the EC50 was 16 pM.

B2: hMAK199-AM8 (antibody, V domains shown)
VH: EVQLVQSGAEVKKPGASVKVSCKASGYTFANYGIIWVRQAPGQGLEWMGWINTYTGKPTYAQKFQGRVTMTTDTSTSTAYMELSSLRSEDTAVYYCARKLFTTMDVTDNAMDYWGQGTTVTVSS
VL: DIQMTQSPSSLSASVGDRVTITCRASQDISQYLNWYQQKPGKAPKLLIYYTSRLQSGVPSRFSGSGSGTDFTLTISSLQPEDFATYFCQQGNTWPPTFGQGTKLEIK
notes: scFv clone J662M2S3#45 converted to full length IgG; HC plasmid pHybE-hCg1,z,non-a V2 (human IgG1), LC plasmid pHybE-hCk V3 (human kappa); also called J662M2S3#45
For the molecule B2, the “rhesus TNF neutralization IC50” value with Rhesus/Macaque TNF [1] was 204 pM. In addition, in the assay with human TNF-α [2], the “hu TNF neutralization IC50” value was determined as 247 pM. For the same molecule, the EC50 with human TNF-α [3] came out at 219 pM.

B3: hMAK195-AM14 (antibody, V domains shown)
VH: EVQLVESGGGLVQPGGSLRLSCAASGFTFSNYGVSWVRQAPGKGLEWVSMIWADGSTHYASSLKGRFTISRDNSKNTLYLQMNSLRAEDTAVYYCAREWQHGPVAYWGQGTLVTVSS
VL: DIQMTQSPSSLSASVGDRVTITCKASQAVSSAVAWYQQKPGKAPKLLIYWASTRHTGVPSRFSGSGSGTDFTLTISSLQPEDFATYYCQQHYSTPFTFGQGTKLEIKR
notes: Full-length IgG; also called rHC3; hMAK195 rHC3
For the molecule B3, the “hu TNF neutralization IC50 (L929 bioassay)” value with human TNF-α [4] is 40.1 pM. In addition, the “rhesus TNF neutralization IC50 (L929 bioassay)” value with Rhesus/Macaque TNF [5] was 4610 pM. In addition, the EC50 with human TNF-α [6] was found to be 51 pM.

B4: hMAK195-AM25 (antibody, V domains shown)
VH: EVQLVESGGGLVQPGGSLRLSCAASGFTFSNYGVTWVRQAPGKGLEWVSMIWADGSTHYASSVKGRFTISRDNSKNTLYLQMNSLRAEDTAVYYCAREWQHGPVAYWGQGTLVTVSS
VL: DIQMTQSPSSLSASVGDRVTITCRASQLVSSAVAWYQQKPGKAPKLLIYWASTLHTGVPSRFSGSGSGTDFTLTISSLQPEDFATYYCQQHYRTPFTFGQGTKLEIKR
notes: Full-length IgG; also called S4-24; hMAK195 S4-24
In the case of B4, the “hu TNF neutralization IC50 (L929 bioassay)” value with human TNF-α [4] came to 11.4 pM. In addition, the “rhesus TNF neutralization IC50 (L929 bioassay)” value with Rhesus/Macaque TNF [5] worked out at 262 pM. For the same molecule, the EC50 with human TNF-α [6] came to 52 pM.

B5: hMAK195-AM16 (antibody, V domains shown)
VH: EVQLVESGGGLVQPGGSLRLSCAASGFTFSNYGVTWVRQAPGKGLEWVSMIWADGSTHYASSVKGRFTISRDNSKNTLYLQMNSLRAEDTAVYYCAREWQHGPAAYWGQGTLVTVSS
VL: DIQMTQSPSSLSASVGDRVTITCKASQAVSSAVAWYQQKPGKAPKLLIYWASTRHTGVPSRFSGSGSGTDFTLTISSLQPEDFATYYCQQHYSTPFTFGQGTKLEIKR
notes: Full-length IgG; also called rHC19; hMAK195 rHC19
For B5, the “hu TNF neutralization IC50 (L929 bioassay)” value with human TNF-α [4] amounted to 10.5 pM. The “rhesus TNF neutralization IC50 (L929 bioassay)” value with Rhesus/Macaque TNF [5] turned out to be 803 pM. Moreover, in the assay with human TNF-α [6], the EC50 turned out to be 56 pM.

B6: hMAK195-AM17 (antibody, V domains shown)
VH: EVQLVESGGGLVQPGGSLRLSCAASGFTFSNYGVTWVRQAPGKGLEWVSMIWADGSTDYADTVKGRFTISRDNSKNTLYLQMNSLRAEDTAVYYCAREWQHGPVAYWGQGTLVTVSS
VL: DIQMTQSPSSLSASVGDRVTITCKASQAVSSAVAWYQQKPGKAPKLLIYWASTRHTGVPSRFSGSGSGTDFTLTISSLQPEDFATYYCQQHYSTPFTFGQGTKLEIKR
notes: Full-length IgG; also called rHC22; hMAK195 rHC22
For the molecule B6, in the assay with human TNF-α [4], the “hu TNF neutralization IC50 (L929 bioassay)” value was 3.1 pM. For the same molecule, the “rhesus TNF neutralization IC50 (L929 bioassay)” value with Rhesus/Macaque TNF [5] is more than 25000 pM. The molecule also came in with an EC50 in the assay with human TNF-α [6] of 56 pM.

These data come from patent publication US20130164256A1 (AbbVie / Abbott, published 2013).
